Laboratory results published in the supplement of paper PMC10567573.

B1: IFRG15 (parent)
chain: INRADYCPECYPDNPANRSLVLPW
B2: HMOX1 (parent)
chain: YHIYVALEEEIERNKESPVFAPVY

Variants of: B1
Assay: protein stability index of a GFP-peptide fusion (GPS, HEK-293T) (PSI 1-6); higher = more stable
Settings: c terminus: a fixed tail appended
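Further: lentivirally expressed fusions sorted by FACS into six bins by GFP to DsRed ratio, PSI derived from sequencing read proportions per bin multiplied by bin number.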

Variant | protein stability index
N2T | 1.78
N2D | 2.64
N2W | 1.61
N2C | 3.06
N2H | 1.84
N2K | 2.29
N2R | 1.26
N2Q | 2.03
N2M | 1.88
N2Y | 1.7
N2P | 2.92
N2I | 1.7
N2E | 2.11
N2V | 1.91
N2F | 1.55
N2S | 1.82
N2A | 1.65
N2G | 2.15
N2L | 1.79
N14E | 2.64
N14Y | 2.08
N14M | 1.68
N14D | 2.52
N14G | 2.83
N14L | 1.67
N14K | 2.25

Variant | protein stability index
N14S | 2.72
N14W | 1.03
N14H | 2.52
N14I | 1.53
N14T | 1.6
N14A | 2.31
N14C | 2.2
N14F | 1.71
N14P | 2.28
N14Q | 1.86
N14V | 2.04
N14R | 2
A4R | 1.83
A4D | 1.95
A4Y | 2.63
A4K | 2.16
A4I | 2.66
A4H | 1.65
A4N | 2.2
A4C | 1.78
A4S | 2.28
A4Q | 2.28
A4V | 1.83
A4T | 2.1
A4G | 2.55
A4M | 1.51

Variant | protein stability index
A4L | 2.09
A4W | 1.68
A4E | 2.48
A4P | 2.47
A4F | 1.93
Y6A | 2.62
Y6S | 3.25
Y6I | 2.24
Y6G | 2.65
Y6D | 2.9
Y6N | 2.86
Y6L | 2.05
Y6P | 3.33
Y6E | 2.52
Y6R | 2.44
Y6K | 2.66
Y6C | 2.67
Y6W | 2.3
Y6V | 2.46
Y6H | 3.04
Y6T | 3.14
Y6F | 2.22
Y6M | 2.21
Y6Q | 3.12
R3D | 2.59
R3H | 2.39

Variant | protein stability index
R3F | 2.12
R3W | 1.35
R3S | 2.2
R3A | 2.42
R3E | 2.42
R3M | 1.91
R3Y | 1.9
R3K | 2.39
R3V | 1.74
R3G | 2.65
R3L | 2.14
R3C | 1.66
R3Q | 2.32
R3N | 2.36
R3T | 2.71
R3P | 2.42
R3I | 1.54
E9W | 1.58
E9M | 1.82
E9G | 1.66
E9F | 1.78
E9A | 2.71
E9R | 2.02
E9S | 1.86
E9D | 2.39
E9K | 1.63

Variant | protein stability index
E9T | 1.86
E9Q | 1.62
E9V | 3.07
E9Y | 1.31
E9H | 1.63
E9N | 1.92
E9P | 3.15
E9C | 2.4
E9I | 1.38
E9L | 2.07
P15E | 2.58
P15I | 2.29
P15F | 1.44
P15G | 2.48
P15L | 1.97
P15K | 1.74
P15C | 2.02
P15A | 2.9
P15D | 2.12
P15H | 2.46
D13S | 1.82
D13H | 2.07
D13N | 2.08
D13P | 2.11
D13L | 2.53
D13A | 1.94

Variant | protein stability index
D13V | 1.63
D13Q | 2.28
D13C | 1.97
D13W | 2.18
D13E | 1.86
D13M | 2.25
D13T | 2.37
D13I | 1.71
D13G | 1.98
D13R | 1.69
D13F | 1.56
D13K | 1.68
D13Y | 1.57
Y11K | 2.27
Y11M | 2.15
Y11N | 2.23
Y11T | 2.32
Y11H | 2.22
Y11E | 2.73
Y11Q | 2.58
Y11G | 2.84
Y11L | 1.83
Y11W | 2.1
Y11S | 2.69
Y11I | 2.25
Y11R | 2.72

Variant | protein stability index
Y11A | 1.96
Y11P | 3.15
Y11D | 3.28
Y11F | 2.2
Y11C | 3.16
Y11V | 2.8
D5A | 1.78
D5Q | 1.93
D5V | 2.21
D5T | 1.55
D5E | 1.96
D5K | 1.4
D5W | 1.91
D5C | 1.92
D5L | 1.6
D5M | 1.95
D5I | 1.99
D5S | 2.07
D5G | 1.91
D5P | 1.91
D5H | 2.09
D5Y | 1.15
D5R | 2.39
D5N | 1.88
D5F | 2.03
P12N | 1.66

Variant | protein stability index
P12V | 1.84
P12I | 1.56
P12W | 1.72
P12D | 2.7
P12F | 1.78
P12T | 1.98
P12Q | 2.11
P12L | 1.9
P12H | 1.91
P12R | 2.05
P12Y | 2.26
P12M | 2.08
P12E | 2.46
P12S | 2.03
P12G | 2.69
P12C | 1.69
P12A | 2.04
P12K | 2.1
C10G | 2.81
C10D | 3.65
C10M | 2.83
C10I | 1.74
C10Y | 2.31
C10K | 2.59
C10W | 2.07
C10R | 2.29

Variant | protein stability index
C10V | 2.32
C10Q | 3.09
C10P | 3.17
C10T | 2.35
C10L | 2.31
C10N | 2.62
C10H | 2.6
C10S | 2.92
C10F | 2.66
C10E | 2.83
C10A | 2.41
P8F | 2.1
P8L | 1.85
P8D | 2.64
P8E | 2.34
P8C | 2.07
P8M | 1.71
P8T | 1.82
P8S | 2.46
P8A | 1.27
P8Y | 2.48
P8H | 2.3
P8V | 1.95
P8G | 2.67
P8Q | 2.48
P8W | 2.02

Variant | protein stability index
P8R | 1.99
P8K | 2.47
P8N | 1.88
P8I | 1.5
C7W | 1.43
C7L | 1.97
C7K | 2.95
C7Q | 2.74
C7M | 2.08
C7T | 2.68
C7D | 3.72
C7H | 2.13
C7N | 2.81
C7P | 2.42
C7V | 2.34
C7G | 2.62
C7R | 2.73
C7F | 2.28
C7Y | 2.41
C7S | 3.23
C7E | 2.5
C7A | 2.58
C7I | 2.27
I1P | 2.21
I1C | 2.53
I1R | 2.05

Variant | protein stability index
I1Y | 1.49
I1W | 1.33
I1M | 2.38
I1S | 2.14
I1V | 1.92
I1D | 2.75
I1A | 2.15
I1F | 2.34
I1H | 2.44
I1Q | 2.26
I1N | 3.18
I1L | 2.29
I1K | 2.42
I1G | 2.05
I1T | 1.74
I1E | 1.93

Variants of: B2
Assay: as above
Settings: c terminus: a fixed tail appended

Variant | protein stability index
Y24A | 3.11
Y24N | 2.9
Y24M | 2.22
Y24G | 2.83
Y24I | 2.49
Y24E | 3.33
Y24F | 1.78
Y24T | 2.96
Y24L | 2.31
Y24C | 2.23
Y24H | 2.48
Y24S | 2.84
Y24Q | 3.09
Y24D | 3.35
Y24R | 3.01
Y24W | 1.98
Y24V | 2.51
Y24K | 2.69
Y24P | 3.47
A21Y | 1.49

Variant | protein stability index
A21W | 1.7
P22M | 3.18
P22R | 2.06
P22I | 2.61
P22G | 1.76
P22F | 2.91
P22T | 2.1
P22C | 1.54
P22W | 1.87
P22H | 1.98
P22S | 1.55
P22Y | 1.77
P22V | 3.15
P22Q | 1.98
P22D | 1.8
P22E | 2.52
P22N | 1.68
P22A | 2.12
P22K | 2.14
V23R | 2.87

Variant | protein stability index
V23C | 2.12
V23K | 2.09
V23H | 1.84
V23Q | 1.99
V23P | 2.69
V23I | 1.87
V23L | 1.77
V23D | 2.69
V23F | 1.78
V23N | 1.78
V23T | 1.83
V23M | 1.89
V23W | 2.65
V23E | 2.63
V23G | 2.1
V23S | 1.85
V23A | 2.27
V23Y | 1.64
